According to US7919091B2, “Lipolysis stimulated receptor (LSR) specific antibodies” (Serono Genetics Institute S.A., priority 1997, dated 2011):

T1: LSR (Rattus norvegicus, UniProt Q9WU74)
T1 construct: from tissue; host or cells: rat liver plasma membranes / solubilized rat liver membrane proteins
T1 sequence (Q9WU74 36-593): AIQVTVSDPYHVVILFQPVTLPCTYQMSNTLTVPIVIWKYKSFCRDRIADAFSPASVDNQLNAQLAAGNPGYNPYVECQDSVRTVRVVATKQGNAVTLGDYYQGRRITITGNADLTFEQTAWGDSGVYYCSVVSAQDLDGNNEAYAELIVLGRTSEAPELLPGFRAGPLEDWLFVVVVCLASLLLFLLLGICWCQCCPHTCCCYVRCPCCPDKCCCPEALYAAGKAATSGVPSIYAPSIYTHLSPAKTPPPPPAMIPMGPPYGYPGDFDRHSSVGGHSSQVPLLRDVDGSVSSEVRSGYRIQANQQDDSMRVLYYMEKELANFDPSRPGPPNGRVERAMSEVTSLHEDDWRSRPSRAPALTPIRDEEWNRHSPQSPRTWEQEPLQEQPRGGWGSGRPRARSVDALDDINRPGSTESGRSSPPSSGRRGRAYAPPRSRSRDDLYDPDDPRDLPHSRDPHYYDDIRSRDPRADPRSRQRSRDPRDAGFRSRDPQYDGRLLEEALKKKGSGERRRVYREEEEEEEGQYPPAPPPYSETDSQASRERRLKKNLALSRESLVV
T1 sequence (Q9WU74 36-525 isoform Q9WU74-3 limits assumed): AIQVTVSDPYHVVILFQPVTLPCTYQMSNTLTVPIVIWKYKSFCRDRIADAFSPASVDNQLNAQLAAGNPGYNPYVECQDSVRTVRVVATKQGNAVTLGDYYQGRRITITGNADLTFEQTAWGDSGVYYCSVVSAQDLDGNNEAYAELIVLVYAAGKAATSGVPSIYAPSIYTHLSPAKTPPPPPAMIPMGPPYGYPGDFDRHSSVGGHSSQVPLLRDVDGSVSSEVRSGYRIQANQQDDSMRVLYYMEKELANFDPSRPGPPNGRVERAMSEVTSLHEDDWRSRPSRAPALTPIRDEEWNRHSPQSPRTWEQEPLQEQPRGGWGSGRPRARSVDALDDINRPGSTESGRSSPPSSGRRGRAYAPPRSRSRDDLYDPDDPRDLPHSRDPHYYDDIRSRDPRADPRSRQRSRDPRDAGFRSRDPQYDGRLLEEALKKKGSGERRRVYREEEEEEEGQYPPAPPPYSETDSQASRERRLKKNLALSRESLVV


Key:
[1] = Postprandial lipemic response in mice after a high-fat meal; format: in vivo; details: ob/ob mice, 2.5 mg lactoferrin with 0.5 μg leptin i.v.
Protocol: Control, ob/ob and db/db mice, starved since the day before, are force-fed with a meal which is very high in fat [60% fat (37% saturated, 27% monounsaturated and 36% polyunsaturated fatty acids), 20% protein and 20% carbohydrate] providing 56 kcal of energy/kg of the weight of the animal. Immediately after the meal (time=0 hour), the mice are injected intravenously with 200 μl of physiological saline solution. At various times, 20 μl of blood are collected via the caudal vein in tubes containing 90 μg of disodium EDTA, and after separating the plasma by centrifugation, the plasma concentration of triglyceridemia is determined with the aid of an enzymatic assay kit. Each point on the curves presented corresponds to the mean with standard deviation obtained for 3 measurements per animal and for 3 different animals.
The procedure is the same as above, except that immediately after the meal (time=0 hour), the mice are injected intravenously with either 200 μl of physiological saline solution, or 200 μl of the same solution containing 50 μg of murine recombinant leptin.
ob/ob mice, starved since the day before, are force-fed with a meal identical to that described above. […] Blood is collected between 2 and 3 hours after the meal and the plasma concentration of triglycerides (TG) is measured. […]

LSR = molecular target: T1, LSR; assay: Effect of AdipoQ on LSR activity in primary culture of rat hepatocytes; format: cell-based; details: 25 ng/ml AdipoQ, in the presence of oleate
Protocol: Primary cultures of rat hepatocytes were prepared and distributed into 6-well plates (9000,000 cells/well). After 48 h, the cells were washed once with PBS (2 ml/well) and incubated for 30 min at 37° C. with 20 ng/ml of recombinant murine leptin. The cells were then incubated for 4 h at 37° C. with increasing concentrations of recombinant murine AdipoQ proteins and 20 μg/ml ^125I-LDL in the presence or in the absence of 0.5 mM oleate. The binding, internalization and degradation of lipoproteins were measured as indicated in Example 1.

[2] = Postprandial lipemic response in rats after AdipoQ injection; format: in vivo, rat; details: high-fat meal, 1 mg AdipoQ i.v.
Protocol: Male Sprague-Dawley rats (400-450 g), starved since the day before, were force-fed with a meal which was very high in fat (t=0) (60% fatty acid of which 37% saturated, 27% monounsaturated and 36% polyunsaturated, 20% protein and 20% carbohydrate, the total providing 56 kcal/kg of body weight) and received immediately afterwards an intravenous injection (femoral vein) of either 300 μl of PBS alone or of the same volume containing 1 mg of mouse recombinant AdipoQ protein. Blood samples were collected at various times (0, 2, 4 and 6 h). The quantity of plasma triglycerides was measured using an enzymatic kit. The results are presented as mean values and standard deviations on 3 animals.

[3] = Change in weight and plasma triglycerides in rats under AdipoQ infusion; format: in vivo, rat; details: 3-day ip infusion
Protocol: Osmotic pumps were surgically inserted into the abdominal cavities of 12 Sprague-Dawley male rats of 400-450 g. The osmotic pumps contained either 2 ml of PBS (phosphate buffered saline), pH 7.4 (control 6 rats), or 2 ml of recombinant AdipoQ protein (5 mg/ml PBS, 6 rats). These pumps were designed to deliver 10 μl/h (50 μg AdipoQ/h). The animals are weighed and individually housed in metabolic cages. 3 animals in each group are subjected ad libitum either to a normal diet or to a fatty diet (day 0). The fatty diet consists of a normal diet supplemented with 2% (w/w) cholesterol, 10% (w/w) saturated fatty acid in the form of vegetaline, [lacuna] % (w/w) sunflower oil and 15% (w/w) sucrose. On day 3, the animals are weighed and blood samples are obtained from the caudal vein. The quantity of plasma triglycerides was measured using an enzymatic kit.

[4] = Food intake in ob/ob and db/db mice under AdipoQ; format: in vivo; details: ob/ob and db/db obese mice, 100 μg daily for 5 days
Protocol: Recombinant AdipoQ protein (100 μg) or PBS alone were injected daily for 5 days through the caudal vein of ob/ob or db/db mice kept in a metabolic cage. The mice are weighed each day and the quantity of food consumed was also measured. The results correspond to a mean food intake and a standard deviation for 4 mice in each group.

Molecule	reduction in the lipemic response induced by leptin [1]	LSR activity (LSR)	postprandial lipemic response [2]	level of plasma triglycerides [3]	weight ([3]; normal or fatty diet)	food intake [4]
lactoferrin: human lactoferrin (Serva), blocks the activity of LSR (protein, UniProt P02788 20-710, looked up) Lactotransferrin: GRRRSVQWCAVSQPEATKCFQWQRNMRKVRGPPVSCIKRDSPIQCIQAIAENRADAVTLDGGFIYEAGLAPYKLRPVAAEVYGTERQPRTHYYAVAVVKKGGSFQLNELQGLKSCHTGLRRTAGWNVPIGTLRPFLNWTGPPEPIEAAVARFFSASCVPGADKGQFPNLCRLCAGTGENKCAFSSQEPYFSYSGAFKCLRDGAGDVAFIRESTVFEDLSDEAERDEYELLCPDNTRKPVDKFKDCHLARVPSHAVVARSVNGKEDAIWNLLRQAQEKFGKDKSPKFQLFGSPSGQKDLLFKDSAIGFSRVPPRIDSGLYLGSGYFTAIQNLRKSEEEVAARRARVVWCAVGEQELRKCNQWSGLSEGSVTCSSASTTEDCIALVLKGEADAMSLDGGYVYTAGKCGLVPVLAENYKSQQSSDPDPNCVDRPVEGYLAVAVVRRSDTSLTWNSVKGKKSCHTAVDRTAGWNIPMGLLFNQTGSCKFDEYFSQSCAPGSDPRSNLCALCIGDEQGENKCVPNSNERYYGYTGAFRCLAENAGDVAFVKDVTVLQNTDGNNNEAWAKDLKLADFALLCLDGKRKPVTEARSCHLAMAPNHAVVSRMDKVERLKQVLLHQQAKFGRNGSDCPDKFCLFQSETKNLLFNDNTECLARLHGKTTYEKYLGPQYVAGITNLKKCSTSPLLEACEFLRK	suppressed	–	–	–	–	–
AdipoQ: mouse recombinant AdipoQ protein with hexahistidine peptide, expressed in E. coli; homologue of complement C1q (protein, left off: small tags and cut ends, mouse recombinant AdipoQ protein with hexahistidine peptide, expressed in E. coli; homologue of complement C1q) SHAEDDVTTTEELAPALVPPPKGTCAGWMAGIPGHPGHNGTPGRDGRDGTPGEKGEKGDAGLLGPKGETGDVGMTGAEGPRGFPGTPGRKGEPGEAAYVYRSAFSVGLETRVTVPNVPIRFTKIFYNQQNHYDGSTGKFYCNIPGLYYFSYHITVYMKDVKVSLFKKDKAVLFTYDQYQEKNVDQASGSVLLHLEVGDQVWLQVYGDGDHNGLYADNVNDSTFTGFLLYHDTN	–	increases	massively reduce	reduced	loss in weight	reduces
